Assay results taken from US10400249B2, “HPPD variants and methods of use” (priority 2014, dated 2019).
Changes are numbered by the printed parent chain. Names and notes keep the numbering of the source.

Assays:
maize T0 events = test: greenhouse spray test of maize T0 events for tolerance to Cmpd. 4; format: in vivo; details: 25 g AI/ha
soybean shoots = test: soybean transformation, greening or bleaching of shoots on isoxaflutole or tembotrione selection; format: in vivo; details: selection amount of herbicide
Description: Soybean transformation is achieved using methods well known in the art, such as the one described using the Agrobacterium tumefaciens mediated transformation soybean half-seed explants using essentially the method described by Paz et al. (2006), Plant cell Rep. 25:206. Transformants were identified using tembotrione or isoxaflutole as selection marker. The appearance of green shoots was observed, and documented as an indicator of tolerance to the herbicide isoxaflutole or tembotrione.

[1] = tested on: Pseudomonas fluorescens HPPD protein; test: OD assay: HPPD activity and pI50 from HPP remaining after derivatisation with DNP; format: biochemical; details: for Activity DeltaE/24 min μg Protein: HPPD enzyme activity of the clone; for tolerance (pI50) DKN: inhibitor diketonitrile (DKN), negative log of molar concentration; for tolerance (pI50) MST: inhibitor mesotrione (MST)
Outline: (§1)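 Purified Pseudomonas fluorescens HPPD, room temperature. OD assay: 50 mM Tris-HCl pH 7.8, 0.5 mM HPP, 10 mM ascorbate, catalase, 24 min, remaining HPP derivatised with DNP, read at 405 nm, inhibitor 5.0×10^−6 to 5.0×10^−4 M. HGD assay: 200 mM Tris-HCl pH 7.6, 600 μM HPP, 20 μM FeSO4, coupled HGA dioxygenase, initial rates at 318 nm, inhibitor ≤100 μM, time-course gives inhibition type; pI50 from 4-parameter fits.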

[2] = tested on: Pseudomonas fluorescens HPPD protein; test: brown color assay: HPPD extracts spotted on solid media containing tyrosine and an HPPD inhibitor; format: biochemical; details: TBT, DKN and mesotrione 500-2000 uM, compared with PfHPPD and PfEvo33
Protocol: A specific, although non-limiting, type of assay that can be used to evaluate the HPPD sequences of the invention is a colorimetric assay. In this assay, a YT-broth-type culture medium with 1% agarose, 5 mM L-Tyrosine and 42 mM Succinate, which contains the selection agent for the vector pSE420 (Invitrogen, Karlsruhe, Germany) or a modified version of pSE420 (pSE420(RI)NX) is poured into deep well plates. E. coli culture in the exponential growth phase which contains the vector pSE420-HPPDx (HPPDx means any gene coding for a putative HPPD enzyme/protein) is applied to each well.
The HPPD PfEvo33 mutant (described in International Patent Application No PCT/US2013/59598 (filed on Sep. 13, 2013) and set forth herein as SEQ ID NO:5) was mutagenized at positions 334 and 336. Saturated mutagenesis of these positions was carried out using the QUIKCHANGE® lightning kit. Mutants were pooled and transformed into DH5alpha E. coli cells. Six hundred individual clones were screened for tolerance to the HPPD inhibitor tembotrione (TBT). The clones were grown in LB media plus kanamycin at 37 degrees C. in a shaker until an OD600 nm of 0.3 was reached. Cultures were then switched to 30 degrees C. and incubated for an additional 17 hours. Cultures were spun down and cell pellets resuspended in 10 mM Hepes/KOH pH 7.6, 4 mM MgCl2, 1 mM DTT. […]
The mutants were analyzed using a brown color assay. […]

[3] = tested on: Pseudomonas fluorescens HPPD protein; test: HGD assay: HPPD activity coupled to HGA dioxygenase, pI50 and type of inhibition (time-course); format: biochemical; details: for tolerance (pI50) DKN: inhibitor diketonitrile (DKN); for tolerance (pI50) DKN / tolerance (pI50) MST / tolerance (pI50) TBT: HGD assay; for tolerance (pI50) MST: inhibitor mesotrione (MST); for tolerance (pI50) TBT: inhibitor tembotrione (TBT)
Outline: as §1

T0 soybean plants = test: greenhouse spray test of T0 soybean plants for tolerance to mesotrione; format: in vivo; details: mesotrione 3X field rate, 316 grams AI per hectare, seven days after treatment
Protocol: T0 soybean plants expressing an HPPD inhibitor tolerant enzyme of the present invention, along with a gene conferring tolerance to glyphosate and a gene conferring tolerance to glufosinate or having a “plant expression cassette”, which includes only an HPPD inhibitor tolerant enzyme of the present invention, were tested for tolerance to mesotrione. Prior greenhouse trials with the transgenic plants, soy transformants were routinely analyzed for the expression and presence of the transgenes using the ELISA protein detection method (see detailed description under item D and H). Only plants recovering in the selection media and having a detectable HPPD transgene protein expression were used for the herbicide tolerance analysis. A DeVries Tracker Sprayer was calibrated prior to each spraying. The chemical formulation used for mesotrione (MST) testing was Callisto® 4 SC formulation supplemented with ammonium sulfate and methylated rape seed oil (Actirob). Spray tests were conducted using 3× the field rate (equivalent to 9 fluid ounce per acre of the same herbicide formulation that containing 40% the active ingredient (AI), mesotrione), which equals 316 grams AI per hectare. Tolerance was evaluated one week after spraying. […] A tolerance rating of “0” was assigned to plants that their shoot apexes, newly emerged trifoliates and some axillary buds were completely bleached. A rating of “1” was assigned to plants having slight tolerance, i.e., the newest plant shoot tissues had some green leaves and are not bleached completely. A rating of “2” was assigned to plants showing moderate tolerance, i.e., more than 50% of the leaf area of the top three trifoliates showing no chlorosis or bleaching damage. A rating of “3” was assigned to plants showing nearly perfect tolerance, i.e., less than 10% of the leaf area showing chlorosis or very slight bleaching.

[4] = HT-single plant expression cassette
[5] = HT-triple plant expression cassette

CSc1c(C(F)(F)F)ccc(C(=O)Nc2nnnn2C)c1Cl [Cmpd. 4, 2-chloro-3-(methylsulfanyl)-N-(1-methyl-1H-tetrazol-5-yl)-4-(trifluoromethyl)benzamide]
leaf damage of control maize T0 events expressing EPSPS only, no HPPD variant (maize T0 events): 100% | leaf damage of non-transformed maize plants (maize T0 events): 100%

CS(=O)(=O)c1cc(C(F)(F)F)ccc1C(=O)c1cnoc1C1CC1 [isoxaflutole, (5-cyclopropyl-4-isoxazolyl)[2-(methylsulfonyl)-4-(trifluoromethyl)phenyl]methanone]
appearance of wild-type soybean shoots treated with the herbicide (soybean shoots): entirely bleached

CS(=O)(=O)c1ccc(C(=O)C2C(=O)CCCC2=O)c(Cl)c1COCC(F)(F)F [tembotrione, 2-[2-chloro-4-(methylsulfonyl)-3-[(2,2,2,-trifluoroethoxy)methyl]benzoyl]-1,3-cyclo-hexanedione]
appearance of wild-type soybean shoots treated with the herbicide (soybean shoots): entirely bleached

B1: PfEvo43: PfHPPD variant E335P, G336F (protein)
chain: MADLYENPMGLMGFEFIEFASPTPGTLEPIFEIMGFTKVATHRSKNVHLYRQGEINLILNNEPNSIASYFAAEHGPSVCGMAFRVKDSQKAYNRALELGAQPIHIDTGPMELNLPAIKGIGGAPLYLIDRFGEGSSIYDIDFVYLEGVERNPVGAGLKVIDHLTHNVYRGRMVYWANFYEKLFNFREARYFDIKGEYTGLTSKAMSAPDGMIRIPLNEESSKGAGQIEEFLMQFNGEGIQHVAFLTDDLVKTWDALKKIGMRFMTAPPDTYYEMLEGRLPDHGEPVDQLQARGILLDGSSVEGDKRLLLQIFSETLMGPVFFEFIQRKGDDGFGPFNFKALFESIERDQVRRGVLTAD
modifications: HPPD variant - PfEvo43
notes: PfHPPD variant E335P, G336F
Activity DeltaE/24 min μg Protein [1]: 0.39 DeltaE/24 min μg Protein | tolerance (pI50) Cmpd. 2 ([1]; inhibitor Cmpd. 2): >5.6 | tolerance (pI50) DKN [1]: 4.1 | tolerance (pI50) MST [1]: 4.6 | brown color formation in presence of HPPD inhibitors [2]: darkest color | mechanism of inhibition by diketonitrile (DKN), time-course of inhibition [3]: fully reversible inhibition | mechanism of inhibition by mesotrione (MST), time-course of inhibition [3]: fully reversible inhibition | mechanism of inhibition by tembotrione (TBT), time-course of inhibition [3]: fully reversible inhibition | tolerance (pI50) DKN [3]: 4.0 | tolerance (pI50) MST [3]: 5.1 | tolerance (pI50) TBT [3]: 6.0 | Number of T0 soybean plants with herbicide tolerance rating 0 (completely bleached) (T0 soybean plants; [4]): 1 | Number of T0 soybean plants with herbicide tolerance rating 1 (slight tolerance) (T0 soybean plants; [4]): 13 | Number of T0 soybean plants with herbicide tolerance rating 2 (moderate tolerance) (T0 soybean plants; [4]): 25 | Number of T0 soybean plants with herbicide tolerance rating 3 (nearly perfect tolerance) (T0 soybean plants; [4]): 34 | Number of T0 soybean plants with herbicide tolerance rating 0 (completely bleached) (T0 soybean plants; [5]): 6 | Number of T0 soybean plants with herbicide tolerance rating 1 (slight tolerance) (T0 soybean plants; [5]): 18 | Number of T0 soybean plants with herbicide tolerance rating 2 (moderate tolerance) (T0 soybean plants; [5]): 26 | Number of T0 soybean plants with herbicide tolerance rating 3 (nearly perfect tolerance) (T0 soybean plants; [5]): 20

B2: PfEvo44: PfHPPD variant E335P, G336Y (protein)
chain: B1 chain with F336Y
modifications: HPPD variant - PfEvo44
notes: PfHPPD variant E335P, G336Y
Activity DeltaE/24 min μg Protein [1]: 0.41 DeltaE/24 min μg Protein | tolerance (pI50) DKN [1]: 4.0 | tolerance (pI50) MST [1]: 4.6 | tolerance (pI50) TBT ([1]; inhibitor tembotrione (TBT)): >5.6 | brown color formation in presence of HPPD inhibitors [2]: darkest color | mechanism of inhibition by diketonitrile (DKN), time-course of inhibition [3]: fully reversible inhibition | mechanism of inhibition by mesotrione (MST), time-course of inhibition [3]: fully reversible inhibition | mechanism of inhibition by tembotrione (TBT), time-course of inhibition [3]: fully reversible inhibition | tolerance (pI50) DKN [3]: 4.1 | tolerance (pI50) MST [3]: 5.2 | tolerance (pI50) TBT [3]: 5.9 | Number of T0 soybean plants with herbicide tolerance rating 0 (completely bleached) (T0 soybean plants; [4]): 7 | Number of T0 soybean plants with herbicide tolerance rating 1 (slight tolerance) (T0 soybean plants; [4]): 14 | Number of T0 soybean plants with herbicide tolerance rating 2 (moderate tolerance) (T0 soybean plants; [4]): 43 | Number of T0 soybean plants with herbicide tolerance rating 3 (nearly perfect tolerance) (T0 soybean plants; [4]): 21 | Number of T0 soybean plants with herbicide tolerance rating 0 (completely bleached) (T0 soybean plants; [5]): 4 | Number of T0 soybean plants with herbicide tolerance rating 1 (slight tolerance) (T0 soybean plants; [5]): 22 | Number of T0 soybean plants with herbicide tolerance rating 2 (moderate tolerance) (T0 soybean plants; [5]): 19 | Number of T0 soybean plants with herbicide tolerance rating 3 (nearly perfect tolerance) (T0 soybean plants; [5]): 26
